The record followed here is patent US20180228802A1.

Experiment [1] addresses PD-1. As to the kind of experiment: competition binding, 1st experiment; rank among the clones; competitor not given.
Experiment [2] deals with PD-1. As to the kind of experiment: FACS; rank of the clone among the humanized BAP049 clones; cells and conditions not described in this filing.
Experiment [3] addresses PD-1. As to the kind of experiment: competition binding, 2nd experiment; rank among the clones; competitor not given.

Chain of PD-1 (chain, as listed by the source limits assumed): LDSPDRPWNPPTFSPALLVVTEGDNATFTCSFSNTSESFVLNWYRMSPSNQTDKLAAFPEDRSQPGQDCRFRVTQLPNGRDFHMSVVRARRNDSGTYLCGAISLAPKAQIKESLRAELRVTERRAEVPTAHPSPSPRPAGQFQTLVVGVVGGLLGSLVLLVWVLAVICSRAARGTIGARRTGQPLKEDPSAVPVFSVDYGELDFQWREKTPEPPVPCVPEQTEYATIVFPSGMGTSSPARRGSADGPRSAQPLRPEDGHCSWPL

B1: Clone No. 16 (antibody, human IgG4 S228P, kappa, V domains shown)
VH: EVQLVQSGAEVKKPGESLRISCKGSGYTFTTYWMHWVRQAPGQGLEWMGNIYPGTGGSNFDEKFKNRFTISRDNSKNTLYLQMNSLRAEDTAVYYCTRWTTGTGAYWGQGTTVTVSS
VL: EIVLTQSPDFQSVTPKEKVTITCKSSQSLLDSGNQKNFLTWYQQKPGQAPRLLIYWASTRESGVPSRFSGSGSGTDFTFTISSLEAEDAATYYCQNDYSYPYTFGQGTKVEIKR
The molecule B1 showed a Competition Binding, 1st exp. (ranking) in experiment [1] of 16. In experiment [2], this molecule yielded a Ranking, FACS data of 15. The same molecule registered a Competition Binding, 2nd exp. (ranking) in experiment [3] of 15.

B2: Clone No. 3 (antibody, human IgG4 S228P, kappa, V domains shown)
VH: EVQLVQSGAEVKKPGESLRISCKGSGYTFTTYWMHWIRQSPSRGLEWLGNIYPGTGGSNFDEKFKNRFTISRDNSKNTLYLQMNSLRAEDTAVYYCTRWTTGTGAYWGQGTTVTVSS
VL: DIQMTQSPSSLSASVGDRVTITCKSSQSLLDSGNQKNFLTWYQQKPGQAPRLLIYWASTRESGIPPRFSGSGYGTDFTLTINNIESEDAAYYFCQNDYSYPYTFGQGTKVEIKR
As for B2, the Competition Binding, 1st exp. (ranking) in experiment [1] is 8. Moreover, the Ranking, FACS data in experiment [2] was 7. In addition, the Competition Binding, 2nd exp. (ranking) in experiment [3] came out at 14.

B3: Clone No. 1 (antibody, human IgG4 S228P, kappa, V domains shown)
VH: EVQLVQSGAEVKKPGESLRISCKGSGYTFTTYWMHWVRQATGQGLEWMGNIYPGTGGSNFDEKFKNRVTITADKSTSTAYMELSSLRSEDTAVYYCTRWTTGTGAYWGQGTTVTVSS
VL: EIVLTQSPATLSLSPGERATLSCKSSQSLLDSGNQKNFLTWYQQKPGQAPRLLIYWASTRESGVPSRFSGSGSGTEFTLTISSLQPDDFATYYCQNDYSYPYTFGQGTKVEIKR
In experiment [1], B3 showed a Competition Binding, 1st exp. (ranking) of 7. The molecule further returned a Ranking, FACS data in experiment [2] of 2. The molecule further gave a Competition Binding, 2nd exp. (ranking) in experiment [3] of 2.

B4: Clone No. 2 (antibody, human IgG4 S228P, kappa, V domains shown)
VH: EVQLVQSGAEVKKPGESLRISCKGSGYTFTTYWMHWVRQATGQGLEWMGNIYPGTGGSNFDEKFKNRVTITADKSTSTAYMELSSLRSEDTAVYYCTRWTTGTGAYWGQGTTVTVSS
VL: DIQMTQSPSSLSASVGDRVTITCKSSQSLLDSGNQKNFLTWYQQKPGQAPRLLIYWASTRESGIPPRFSGSGYGTDFTLTINNIESEDAAYYFCQNDYSYPYTFGQGTKVEIKR
B4 had a Competition Binding, 1st exp. (ranking) in experiment [1] of 3. In experiment [2], this molecule had a Ranking, FACS data of 6. The same molecule returned a Competition Binding, 2nd exp. (ranking) in experiment [3] of 2.

B5: Clone No. 12 (antibody, human IgG4 S228P, kappa, V domains shown)
VH: EVQLVQSGAEVKKPGESLRISCKGSGYTFTTYWMHWVRQATGQGLEWMGNIYPGTGGSNFDEKFKNRVTITADKSTSTAYMELSSLRSEDTAVYYCTRWTTGTGAYWGQGTTVTVSS
VL: DIQMTQSPSSLSASVGDRVTITCKSSQSLLDSGNQKNFLTWYLQKPGQSPQLLIYWASTRESGVPSRFSGSGSGTDFTFTISSLEAEDAATYYCQNDYSYPYTFGQGTKVEIKR
For the molecule B5, the Competition Binding, 1st exp. (ranking) in experiment [1] is 8. The molecule also yielded a Ranking, FACS data in experiment [2] of 3. In experiment [3], this molecule gave a Competition Binding, 2nd exp. (ranking) of 16.

B6: Clone No. 4 (antibody, human IgG4 S228P, kappa, V domains shown)
VH: EVQLVQSGAEVKKPGESLRISCKGSGYTFTTYWMHWIRQSPSRGLEWLGNIYPGTGGSNFDEKFKNRFTISRDNSKNTLYLQMNSLRAEDTAVYYCTRWTTGTGAYWGQGTTVTVSS
VL: EIVLTQSPATLSLSPGERATLSCKSSQSLLDSGNQKNFLTWYQQKPGKAPKLLIYWASTRESGVPSRFSGSGSGTDFTFTISSLQPEDIATYYCQNDYSYPYTFGQGTKVEIKR
In turn, B6 returned a Competition Binding, 1st exp. (ranking) in experiment [1] of 15. For the same molecule, in experiment [2], the Ranking, FACS data was 14. The molecule also registered a Competition Binding, 2nd exp. (ranking) in experiment [3] of 15.

B7: Clone No. 5 (antibody, human IgG4 S228P, kappa, V domains shown)
VH: EVQLVQSGAEVKKPGESLRISCKGSGYTFTTYWMHWVRQATGQGLEWMGNIYPGTGGSNFDEKFKNRVTITADKSTSTAYMELSSLRSEDTAVYYCTRWTTGTGAYWGQGTTVTVSS
VL: EIVLTQSPATLSLSPGERATLSCKSSQSLLDSGNQKNFLTWYQQKPGKAPKLLIYWASTRESGVPSRFSGSGSGTDFTFTISSLQPEDIATYYCQNDYSYPYTFGQGTKVEIKR
B7 yielded a Competition Binding, 1st exp. (ranking) in experiment [1] of 5. In experiment [2], this molecule returned a Ranking, FACS data of 5. In experiment [3], this molecule came in with a Competition Binding, 2nd exp. (ranking) of more than 4.
